Measurements taken from the supplement of paper PMC9112550, “Optimization of the antimicrobial peptide Bac7 by deep mutational scanning” (BMC Biology, 2022).

The sequences below were run on Escherichia coli TOP10 (assay: shrunken log2 fold change of peptide-encoding DNA abundance (4.5 h post-induction vs induction); higher = less antimicrobial activity (less host growth inhibition)). Settings: time post-induction: 4.5 h; library: site-saturation at positions 5, 18, 19, 20.
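Further: peptides expressed intracellularly from a pBAD plasmid library in pooled LB shake-flask culture, induced with 0.3% L-arabinose, DNA abundance read by NGS, three biological replicates, DESeq2 with apeglm shrinkage.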

Sequence | shrunken log2 fold change
RRIRDRPPRLPRPRPRPEDTPRP | 0.509
RRIRCRPPRLPRPRPRPQWPPRP | 0.0205
RRIRFRPPRLPRPRPRPEFNPRP | -0.199
RRIRFRPPRLPRPRPRPCTEPRP | -0.431
RRIRGRPPRLPRPRPRPWLNPRP | -0.00435
RRIRKRPPRLPRPRPRPCPKPRP | 0.29
RRIRTRPPRLPRPRPRPMEPPRP | 0.045
RRIRGRPPRLPRPRPRPRNKPRP | 0.765
RRIRYRPPRLPRPRPRPHMWPRP | -0.621
RRIRSRPPRLPRPRPRPCITPRP | -0.185
RRIRDRPPRLPRPRPRPINNPRP | -1.21
RRIRWRPPRLPRPRPRPVMKPRP | 0.12
RRIRLRPPRLPRPRPRPMFIPRP | -0.734
RRIRGRPPRLPRPRPRPIWEPRP | 0.019
RRIRRRPPRLPRPRPRPFKGPRP | 0.0185
RRIRMRPPRLPRPRPRPEAVPRP | 3.72
RRIRPRPPRLPRPRPRPKHVPRP | -0.137
RRIRLRPPRLPRPRPRPDITPRP | -0.00678
RRIRDRPPRLPRPRPRPRYMPRP | -0.233
RRIRDRPPRLPRPRPRPVCCPRP | 0.967
RRIRHRPPRLPRPRPRPDIHPRP | -0.171
RRIRKRPPRLPRPRPRPSEDPRP | -0.0464

Sequence | shrunken log2 fold change
RRIRLRPPRLPRPRPRPWYCPRP | -0.766
RRIRFRPPRLPRPRPRPLRWPRP | 0.59
RRIRDRPPRLPRPRPRPLCSPRP | 0.513
RRIRSRPPRLPRPRPRPMNDPRP | -0.075
RRIRMRPPRLPRPRPRPFSEPRP | 0.273
RRIRRRPPRLPRPRPRPVSMPRP | 0.22
RRIRCRPPRLPRPRPRPEKNPRP | 0.165
RRIRYRPPRLPRPRPRPKYAPRP | -0.532
RRIRARPPRLPRPRPRPHGQPRP | 0.0639
RRIRYRPPRLPRPRPRPKKEPRP | -0.00181
RRIRWRPPRLPRPRPRPGTQPRP | 0.216
RRIRTRPPRLPRPRPRPWLVPRP | -0.0639
RRIRCRPPRLPRPRPRPSPDPRP | 0.215
RRIRWRPPRLPRPRPRPPLTPRP | 0.432
RRIRFRPPRLPRPRPRPEPLPRP | 0.0513
RRIRGRPPRLPRPRPRPQSSPRP | 0.000815
RRIRRRPPRLPRPRPRPIGDPRP | 0.257
RRIRVRPPRLPRPRPRPDMKPRP | 0.0218
RRIRCRPPRLPRPRPRPVEMPRP | 0.0203
RRIRYRPPRLPRPRPRPDRIPRP | -0.00973
RRIRQRPPRLPRPRPRPVRFPRP | 0.728
RRIRDRPPRLPRPRPRPENRPRP | -0.0191

Sequence | shrunken log2 fold change
RRIRPRPPRLPRPRPRPNDNPRP | -0.533
RRIRMRPPRLPRPRPRPERDPRP | 2.25
RRIRNRPPRLPRPRPRPIGTPRP | 0.000741
RRIRRRPPRLPRPRPRPVGEPRP | 0.333
RRIRNRPPRLPRPRPRPYCLPRP | -0.228
RRIRFRPPRLPRPRPRPLSLPRP | -0.0575
RRIRTRPPRLPRPRPRPVLAPRP | 0.479
RRIRIRPPRLPRPRPRPKLNPRP | 0.0573
RRIRCRPPRLPRPRPRPACEPRP | 0.112
RRIRDRPPRLPRPRPRPECNPRP | 0.741
RRIRMRPPRLPRPRPRPTDMPRP | 0.0845
RRIRFRPPRLPRPRPRPHMAPRP | -0.429
RRIRQRPPRLPRPRPRPWQDPRP | 0.07
RRIRYRPPRLPRPRPRPIGNPRP | 0.167
RRIRPRPPRLPRPRPRPASSPRP | 0.0138
RRIRMRPPRLPRPRPRPNIRPRP | -0.169
RRIRVRPPRLPRPRPRPSQEPRP | -0.549
RRIRCRPPRLPRPRPRPYQGPRP | 0.0299
RRIRGRPPRLPRPRPRPNHKPRP | -0.195
RRIRCRPPRLPRPRPRPLLCPRP | -0.163
RRIRRRPPRLPRPRPRPIAHPRP | -0.0355
RRIRSRPPRLPRPRPRPWHSPRP | -0.0018

Sequence | shrunken log2 fold change
RRIRVRPPRLPRPRPRPCCQPRP | -0.19
RRIRQRPPRLPRPRPRPDAEPRP | 0.105
RRIRRRPPRLPRPRPRPFHNPRP | 0.00548
RRIRIRPPRLPRPRPRPYYRPRP | -0.105
RRIRKRPPRLPRPRPRPAPMPRP | 0.769
RRIRFRPPRLPRPRPRPGIAPRP | -0.15
RRIRKRPPRLPRPRPRPHRLPRP | 0.164
RRIRSRPPRLPRPRPRPAIWPRP | 0.463
RRIRMRPPRLPRPRPRPMEHPRP | 0.0124
RRIRLRPPRLPRPRPRPNCFPRP | -0.0891
RRIRGRPPRLPRPRPRPKWAPRP | 0.155
RRIRYRPPRLPRPRPRPNPYPRP | -0.0428
RRIRIRPPRLPRPRPRPMPIPRP | -0.0218
RRIRVRPPRLPRPRPRPFILPRP | -0.384
RRIRCRPPRLPRPRPRPRHRPRP | -0.466
RRIRERPPRLPRPRPRPQCPPRP | -0.207
RRIRNRPPRLPRPRPRPDPAPRP | 0.172
RRIRFRPPRLPRPRPRPATSPRP | 0.0918
RRIRSRPPRLPRPRPRPVWKPRP | -0.1
RRIRFRPPRLPRPRPRPECQPRP | -0.0729
RRIRGRPPRLPRPRPRPHPRPRP | 0.839
RRIRWRPPRLPRPRPRPPVIPRP | -0.189

Sequence | shrunken log2 fold change
RRIRRRPPRLPRPRPRPANMPRP | -0.0342
RRIRNRPPRLPRPRPRPLGNPRP | -0.248
RRIRQRPPRLPRPRPRPTKAPRP | 0.0785
RRIRCRPPRLPRPRPRPRGSPRP | 0.511
RRIRARPPRLPRPRPRPYMLPRP | -0.659
RRIRWRPPRLPRPRPRPSECPRP | 0.0183
RRIRCRPPRLPRPRPRPEWSPRP | 0.144
RRIRVRPPRLPRPRPRPVMCPRP | -0.0631
RRIRFRPPRLPRPRPRPGNEPRP | -0.00911
RRIRARPPRLPRPRPRPWCAPRP | 0.147
RRIRNRPPRLPRPRPRPTAAPRP | 0.543
RRIRGRPPRLPRPRPRPGYLPRP | 0.0499
RRIRYRPPRLPRPRPRPQMRPRP | -0.00174
RRIRARPPRLPRPRPRPVYQPRP | -0.068
RRIRQRPPRLPRPRPRPDGEPRP | 0.117
RRIRGRPPRLPRPRPRPPQPPRP | 1.03
RRIRHRPPRLPRPRPRPNQKPRP | -0.0319
RRIRDRPPRLPRPRPRPGDSPRP | 0.13
RRIRGRPPRLPRPRPRPAVDPRP | 0.896
RRIRHRPPRLPRPRPRPWFIPRP | -0.775
RRIRIRPPRLPRPRPRPCTNPRP | -0.0668
